# According to the nanobody polyreactivity screen of Harvey et al. (2022):
# Test: yeast display, Sf9 membrane polyspecificity reagent, FACS + sequencing; frameworks hold sequencing errors
# Outline: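 Synthetic nanobody libraries on Saccharomyces cerevisiae BJ5465 were galactose-induced for 36–48 hours, stained 1 hour at 4 °C with 10% biotinylated, detergent-solubilized Sf9 membrane reagent and enriched on streptavidin microbeads. FACS then separated cells into low and high (top ~1%) gates by anti-HA (expression) and streptavidin (reagent binding) fluorescence. Genes were colony-PCR amplified, MiSeq 2 × 250 sequenced and CDR-length filtered. A clone's polyreactivity label is that of its gate of origin.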
row,Sequence,polyreactivity (PSR sort gate)
1,QGQLVESWGGLVQAGGSLRLSCAASGSTFVFNAMGWYRQAPGKERELVAAISIDGSTNYADSVKGRFTISRDNAKNTVYLQMNSLEPEDTAVYYCNAKRYGFFYWQGDYWGQGTQVTVSS,low polyreactivity
2,QVQLVESGGGLVQAGGSLRLSCAASGSTFIRNAMGWYRPAPGKERELVAAISSSGGRTYYADSVKGRFTISRDNAKNTVYLQMNSLKPEDTAVYYCAARNARYVHTMEYWGQGTQVTVSS,high polyreactivity
3,QVQLVESGGGLVQAGGSLRLSCAASGRTFFKYVMGWYRQAPGKERELVAAISYRSGSTYYADSVKGRFTISRDNAKNTVYLQMNSLKPEDTAVYYCAIEPPPVKGDYWGQGTQVTVSS,low polyreactivity
4,QVQLVESGGGLVQAGGSLRLSCAASGSTYRLYAMGWYRQAPGKERELVAAITWRGTTYYADSVKGRFTISRDNAKNTVYLQMNSLKPEDTAVYYCAARAPVAGYKYRYDYWGQGTQVTVSS,high polyreactivity
5,QHQLVESGGGLVQAGGSLRLSCAASGSIFWRYVMGWYRPAPGKERELVAAISSGGGITYYADSVTGRFTISRDTAKNTLYLQMNSLKPEDTAVYYCAAYGSLSPKYGYWGQGTQVNVSS,high polyreactivity
6,QVQLVESGGGLVQAGGSLRLSCAASGGTFPFYAMGWYRQAPGKERELVAAITFTTSSTYYADSVKGRFTISRDNAKNTVYLQMNSLKPEDTAVYYCAVDYGWYSSYYREYDYWGQGTQVTVSS,low polyreactivity
7,QVHLVESGGGLVQAGGSLRLSSAASGSTFLYYGMGWYRQAPGTERELVATITWRGGRTYYADSVKGRFTISRDNAKNSVYLQMNSLNPEDTAVYYCAARVVGSYLKPYPYGLYYWGQGTQVTVSS,high polyreactivity
8,QVQLVESGGGLVQAGGSLRLSCAASGRIFQPYAMGWYRQAPGKERELVAAITRSGGSTYYADSVKGRFTISRDNAMNTVDLQLNSLKPEDTAVSYCASKVLYPYEYWGQGTQVTVSS,low polyreactivity
9,QVQLVESGGALVQAGGSLRLSCAASGSTFHRNAMGWYRQAPGKERELVAAITSGGSTNYADSVKGRFTISRDNAMNTVYLQLNSLKPEDTAVYSCAKDYRHYNRGWYDYWGQGTQVTVSS,low polyreactivity
10,QVQLVESGGGLVQAGGSLRLSCAASGSIFWYYAMGWYRQAPGKERELVAAISISGSTYYADSVKGRFTISRDNAKNTVYLQMNSLKPEDTAVYYCAARKFFWRSNYDYWGQGTQVNVSS,low polyreactivity
11,QVQLVESGGGLVQAGGSLRLSCAASGSIFWQNAMGWYRQAPGKERELVAAISRNGGSTNYADSVKGRFTISRDNAKNTVYLQMNSLKPEDTAVYYCAAVGTVSRTVGYNYWGQGTQVTVSS,high polyreactivity
12,QVQLVESGGGLVQAGASLRISCAASGNILPVYAMGWYRQAPGKEREFVAAITSRGGSTYYADSVKGRFTISRDNAKNTVYLQMNSLKPEDTAVYYCAAKYLRAYGYWGQGTQVTVSS,high polyreactivity
13,QDQLVESGGGLVQAGGSLRLSCAASRRTFSNYAMGWYRPAPGKERELVAAISGTGDNTYYADSVKVRFTISRDNANYTVYLQMNSLKPEDTAVYYCNTVYYGWPRCYGYWGQGTQVTVSS,high polyreactivity
14,QVQLVESGGGLVQAGGSLRLSCAASGRIFYRNAMGWYRQAPGKERELVAAISYSGGRTYYADSVKGRFTISRDNAKNTVYLQMNSLKPEDTAVYYCAARYAWGYVDPGDYWGQGTQVTVSS,high polyreactivity
15,QVQLVESGGGLVQAGGSLRLSCAASGSTFTGYTMGWYRQAPGKERELVAAITYRGGSTYYADSVKGRFTISRDNAKNTVYLQMNSLKPEDSAVYYCAAVAVYYEYSPYDYWGQGTQLTVSS,low polyreactivity
16,QFQLVESGGGLVQAGGSLRLSCAASGRIFYKYVMGWYRQAPGKERELVAAINLSGGTTYYADSVKGRFTISRDNAKNTVYLQMNSLKPEDTAVYYCAADSFTLTHYYWGQGTQVTVSS,low polyreactivity
17,QVQLVESGGGLVQAGGSLRVSCAASGFTFDQYAMGWYRQAPGKERELVAAISWSGASTYYADSVKGRFTISRDNAKNTDDLQMNSLKPEDTAVYYCAVSRRRIDYDYWGQGTQVTVSS,high polyreactivity
18,QVQLVESGGGLVQAGGSLRLSCAASGITFSSYVMGWYRQAPGKERELVAAISRSGGITYYADSVKGRFTISRDNAKNTVYIQMNSLKPEDTAVYYCAATFPAGWSYANYYYWGQGTQVTVSS,high polyreactivity
19,QVQLVESGGGLVQAGGSLRLSCAASGRIFYFYVMGWYRQAPGKERELVAGISDGSTNYADSVKGRFTISRDNAKNTVYLQMNSLKPEDTAVYYCAKDPLVIRFVQGRFGYDYWGQGTQVTVSS,low polyreactivity
20,QVQLVESGGGLVQAGGSLRISCAASGSIFRGYGMGWDRQAPGKERELVAAINYSGGSTYYADSVKGRYTISRDNAKNTVYLQMNSLKPEDTAVYYCNKVYYRQRGEYYYWGQGTQVTVSS,high polyreactivity
21,QVQLVESGGGLVQAGGSLRLSCAASGSTFPPNAMGWYRQAPGKERELVAAISASGGRTYYADSVKGRFTISRDNAKNTVYLQMNSLKPEDTAVYYCNARGGRYGRGSSDQLDYYWGQGTQVTVSS,high polyreactivity

row,Sequence,polyreactivity (PSR sort gate)
1,QVQLVESGGGLVQAGGSLRLSCAASGRTFRYYAMGWYRQAPGKESEFVARISSSGSSTYSADSVKGRFTISRDNAKNTVYLQMNSLKPEDTAVYYCAKTVLPYGGSNGLKWYYYWGQGTQVTVSS,high polyreactivity
2,QVQLVESGGGLVQAGGSLRLSCAASGSTFIPNTMGWYRQAPGKERELVAAISRRGGSTNYADSVKGRFTISRDNAKNTVYLQMNSLKPEDTAVYYCAAVSPRRYRYDYWGQGTQVTVSS,high polyreactivity
3,QVQLVESGGGLVQAGGSLRLSCAASGSTFRFNAMGWYRQAPGKERELVAAISGSGGSTYYADSVKGRFTISRDNAKNTVYLQMNSLKPEDTAVYYCAASASSRSYFKSYYWGQGTQVTVSS,high polyreactivity
4,QVQLQESGDGLVQAGGSLRLSSAASGTIFSDYGMGWYRQAPGKERELLAGISDGCNTNYTDSVKGRFTISRDNAHRVSADDQPETGGYRGVLLRGSERWLLFYVYWGLGTQVTVSS,high polyreactivity
5,QVQLVESGGGLVQAGGSLRLSCAASGRTFIKYARGWYRPAPGKERELVAAISRNGGSTNYADSVKGRFTISRDNAKNTVYFQMNSLKPEDTAVYYCAAVGTVSRTVGYNYWGQGTQVTVSS,high polyreactivity
6,QVQLVESGGGLVQAGGSLRLSCAASGRIFIRNAMGWYRQAPGKERELVAAITQSGGSTYYADSVKGRFSISRVYAKNTVYLQMNSLKPEDTAVYYCNAVRYNCVGYDYWGQGTQVTVSS,high polyreactivity
7,QVHLVDSGGGVVVAGGRLRLSCAASVFTFDRNAMGWYRHARGKERALVAAISSSGGRTYYADSVKGRFTISRDNAKNTFYLQMNSLKPEDTAVYYCNAVPSARTQPYNGWGQGSQVTVSS,high polyreactivity
8,QVKLVESGGGLVQAGGSLRLSCAASGSTYWQYSMGWYRHAPGKEREFVAAISSRGGSTYYADSVKGRFTISRDNAKNTVYLQMNSLKPEDTAVYYFAAKNYFAFIRTYRYVHRPTYYYWGQGTQVTVSS,high polyreactivity
9,QVQLVESGGGLVQAGGSLRLSCAASGRTFYANAMGWYRQAPGKERELVATITRGGSTNYADSVKGRFTISRDNAKNTVYLQMNSLKPEDTAVYYCAARSYTSSHRHYYWGQGTQVTVSS,low polyreactivity
10,QVQLVESGGGLVQAGGSLRLSCAASGFIFRRYAMGWYRQAPGKERELVAAINYSGTSTYYADSVKGRFTISRDNAKNTVYLQMNSLKPEDTAVYYCNARVGYPPYDYWGQGTQVTVSS,low polyreactivity
11,QVQLVESGGGLVQAGGSLRLSCAASGSIFASNALGWYRQAPGKERELVAAIDTSGGSTYYADSVKGRFTISRDNAKNTVYLQMNSLKPEDTAVYYCNTDWRDEYYPRYRASKFDYWGQGTQVTVSS,low polyreactivity
12,QVQLVESGGGLVQAGGSLRISCAASGRIFVSNAMGWYRQAPGKDRELVAAISKSGARTSYADSVKGRFTISRDNAKNTVYLQMNSLKPEDTAVYYCAAPVRWSGGGEYPNYYWGQGTQVTVSS,high polyreactivity
13,QVQLVESGGGLVQAGGTLRLSCAACGSTYYRNAMGWYRPAPGKERELVATITRSGGSTYYADSVKGRFTISRDNAKNTVYLQMNSLKPEDTAVYYCAARGWYKSDYWGQGTQVTVSS,low polyreactivity
14,QVQLVESGGGLVQAGGSLRLSCAASGRTFQGYAMGWYRQAPGKERDLVAAISTSGARTYYADSVKGRFTISRDNAKNTVYLQMNSLKPEDTAFYYCAAGGQGGDFGDDYWGQGTQVTVSS,high polyreactivity
15,QVQLVESGGGLVQAGGSLRLSCAASGRMFGAYGMGWYRQAPGKERELVAAISNGGRTSYADSVKGRFTISRDNAKNTVYLQMNSLKPEDTAVYYCAAVQLAYTYYWYNDWGQGTQVTVSS,high polyreactivity
16,QVQLVESGGGLVQAGGSLRLSCAASGSIFYRNAMGWYRQAPGKERELVAAITSRGGRTYYADSVKGRFTISRDNAKNTVYLQMTSLKPEDTAVYYCAADYRYPAHSYGYWGQGTQVTVSS,high polyreactivity
17,QVQLVESGGGLVQAGGSLRLSCAASGSIFNGYAMGWYRQAPGKERELVAAISWNGGRTYYADSVKGRFTISRDNAKNTVYLQMNSLKPEDTAVYYCNKVSGYDVDYWGQGTQVTVSS,high polyreactivity
18,QVQLVESGGGLVQAGGSLRLSCASSGRTFTYNAMGWYRQAPGKERELVAVIRYSGGTTYYADSVKGRFTISRDNAKNTVYFQMNRLIPEDTAVYYCAADSWSRSVNYYYWGQGTQVTVSS,low polyreactivity
19,QVQLVESGGGLVQAGGSLRLSCAASGYISNANAMGCYRQAPGKERELVAAITWSGGSTYADSVKGRFTITRDNAKNTVYLQMNSLKPEDTAVYYCAVGPYRVAKYNYWGQGTQVTVSS,low polyreactivity
20,QVQLVESGGGLVQAGGSLRLSCAASGLTFYTNAKGWYRQAPGKEREFVDAITSSGGRKYYADSVKGRFTISRDNAKNTVYLQMNSLKPEDTAVYYCAADARRPRIPEMYYWGQGTQVTVSS,high polyreactivity
